Test results from patent US20070022497A1, “Trans-2-enoyl-coa reductase gene of euglena gracilis” (BASF Plant Science GmbH, priority 2004, published 2007).

T1: trans-2-enoyl-CoA reductase (TER) (Euglena gracilis, UniProt Q5EU90)
T1 construct: One kilogram of Euglena gracilis strain Z cells grown under aerobic conditions for one week was used as starting material; endogenous in cells; host or cells: Euglena gracilis strain Z, aerobically grown; enzyme purified by chromatography (crude extract to Superdex 200)
T1 sequence (Q5EU90 137-539 limits assumed): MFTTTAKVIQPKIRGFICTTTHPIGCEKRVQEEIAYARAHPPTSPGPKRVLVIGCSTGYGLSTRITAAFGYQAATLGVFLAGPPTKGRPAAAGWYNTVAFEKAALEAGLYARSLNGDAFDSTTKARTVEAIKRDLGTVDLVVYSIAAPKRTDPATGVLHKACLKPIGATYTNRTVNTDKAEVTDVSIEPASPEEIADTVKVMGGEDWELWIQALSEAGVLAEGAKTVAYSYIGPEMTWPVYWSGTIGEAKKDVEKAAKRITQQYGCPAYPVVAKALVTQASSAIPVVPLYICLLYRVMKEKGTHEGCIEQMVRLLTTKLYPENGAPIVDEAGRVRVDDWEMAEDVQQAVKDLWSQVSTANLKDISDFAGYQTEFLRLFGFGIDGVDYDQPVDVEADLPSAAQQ

B1: ter2-protein: His-tagged truncated TER protein (from aa 136, 45 kDa) expressed in E. coli (protein, listed as Euglena gracilis)
chain: T1 sequence (Q5EU90 137-539 limits assumed)
modifications: His tag
notes: His-tagged truncated TER protein (from aa 136, 45 kDa) expressed in E. coli
B2: SEQ ID NO: 4: shortened Ter gene ORF; protein SEQ ID NO: 5 with 28 amino acid N-terminal stretch predicted to give mitochondrial targeting (nucleic acid, listed as Euglena gracilis)
DNA: ATGGGCCGCCGCGGGGCCGCAGTGGGCGGCGCCGCTCGTGGCCGCGGCCTCCTCCGCACTGGCGCTGTGGTGGTGAACATCGCCACCGCGGTCACCCACCTGGCCCCCCCGATGGCGATGTTCACCACCACAGCGAAGGTCATCCAGCCCAAGATTCGTGGCTTCATCTGCACGACCACCCACCCGATCGGCTGTGAGAAGCGGGTCCAGGAGGAGATCGCGTACGCCCGTGCCCACCCGCCCACCAGCCCTGGCCCGAAGAGGGTGCTGGTCATCGGCTGCAGTACCGGCTACGGGCTCTCCACCCGCATCACCGCTGCCTTCGGCTACCAGGCCGCCACGCTGGGCGTGTTCCTGGCGGGCCCCCCGACGAAGGGCCGCCCCGCCGCGGCGGGCTGGTACAACACCGTGGCGTTCGAGAAGGCCGCCCTGGAGGCCGGGCTGTACGCCCGGAGCCTTAATGGCGACGCCTTCGACTCCACAACGAAGGCGCGGACGGTCGAGGCGATCAAGCGGGACCTCGGCACGGTGGACCTCGTGGTGTACAGCATCGCCGCCCCGAAGCGGACGGACCCTGCCACCGGCGTCCTCCACAAGGCCTGCCTGAAGCCCATCGGCGCCACGTACACCAACCGCACTGTGAACACCGACAAGGCGGAGGTGACCGACGTCAGCATTGAGCCGGCCTCCCCCGAAGAGATCGCGGACACGGTGAAGGTGATGGGCGGGGAGGACTGGGAGCTCTGGATCCAGGCGCTGTCGGAGGCCGGCGTGCTGGCGGAGGGGGCCAAGACGGTGGCGTACTCCTACATCGGCCCCGAGATGACGTGGCCTGTCTACTGGTCCGGCACCATCGGGGAGGCCAAGAAGGACGTGGAGAAGGCTGCCAAGCGCATCACGCAGCAGTACGGCTGCCCGGCGTACCCGGTGGTGGCCAAGGCCTTGGTCACCCAGGCCAGCTCCGCCATCCCGGTGGTGCCGCTCTACATCTGCCTGCTGTACCGCGTTATGAAGGAGAAGGGCACCCACGAGGGCTGCATCGAGCAGATGGTGCGGCTGCTCACCACGAAGCTGTACCCCGAGAACGGGGCCCCCATCGTCGATGAGGCCGGACGTGTGCGGGTGGATGACTGGGAGATGGCGGAGGATGTGCAGCAGGCTGTTAAGGACCTCTGGAGCCAGGTGAGCACTGCCAACCTCAAGGACATCTCCGACTTCGCTGGGTATCAAACTGAGTTCCTGCGGCTGTTCGGGTTCGGCATTGACGGCGTGGACTACGACCAGCCCGTGGACGTGGAGGCGGACCTCCCCAGTGCTGCCCAGCAGTAG
modifications: CDS (1)..(1329)

Assays:
[1] = target: T1, trans-2-enoyl-CoA reductase (TER); experiment: trans-2-enoyl-CoA reductase enzyme activity assay (decrease of absorbance at 340 nm with Crotonyl-CoA and NADH); format: biochemical; settings: His-Tag protein from ter2-pET28 in E. coli BL21 (DE3), purified via Ni-NTA agarose
Procedure: Enzyme activity was measured as described by Inui, H. et al. (1984) Eur. J. Biochem. 142: 121-126 with the following modifications. The assay mixture contained 100 mM potassiumphosphate buffer pH 6,2; 0,75 mM Crotonyl-CoA (Sigma); 0,4 mM NADH and 2 μM FAD and enzyme. The assay mixture without substrate was preincubated for 10 min at 30° C. The reaction was also performed at 30° C. and started with the addition of substrate. The activity was determined by the decrease of absorbance at 340 nm. The final assay volume was 1 ml (Ultrospec 2000 Spectrophotometer, Amersham Biosciences) or 200 μl (GENios microplate reader, Tecan Instruments, Maennedorf, Switzerland).

Arabidopsis thaliana = experiment: Total seed lipid content of transgenic Arabidopsis plants over-expressing the TER gene (gas chromatography of fatty acids); format: in vivo; settings: for Total seed lipids, % fatty acids: mean of two extractions, empty vector controls 28.3 ± 0.4
Procedure: Using floral dip essentially as described by Clough and Bent, 1998, plants are transformed with Agrobacterium tumefaciens C58C1 harboring the plasmid pSUN300-USP-TER-OCS respectively. Entire plants (inflorescence and rosette) are submerged for 20-30 sec in the infiltration media consisting of 5% sucrose, 0.02% Silwet L-77 (Osi Specialties, Danbury, Conn.) and re-suspended transformed A. tumefasciens cells. Plants are then transferred to a growth chamber with a photoperiod of 16 h of light at 21° C. and 8 h of dark at 18° C. (70% humidity) or a similarly air-conditioned greenhouse. The T1 seeds are collected from mature plants. Subsequently transformed plants were identified on selection media by growing T1 seeds on MS-agar plates supplemented with kanamycin (50 μg/ml).
Plant lipids were extracted from plant material as described by Cahoon et al. (1999, Proc. Natl. Acad. Sci. USA 96, 22:12935-12940) and Browse et al. (1986, Anal, Bio-chemistry 442:141-145). Qualitative and quantitative lipid or fatty acid analysis is described in Christie, William W., Advances in Lipid Methodology. Ayr/Scotland :Oily Press.—(Oily Press Lipid Library; Christie, William W., Gas Chromatography and Lipids. A Practical Guide—Ayr, Scotland :Oily Press, 1989 Repr. 1992.—IX,307).
The total lipid content of dry T2 generation seeds from Arabidopsis thaliana plants over-expressing SEQ ID NO: 1, SEQ ID NO: 4 or SEQ ID NO: 6 will be increased compared to the empty vector Arabidopsis thaliana control plants not expressing SEQ ID NO: 1, SEQ ID NO: 4 or SEQ ID NO: 6. As an example the T2 seed lipid content determined by conventional gas chromatography as mg fatty acids per mg dry seeds of the plants overexpressing SEQ ID NO: 4 is given in table 4. Each value is the mean of two separate extractions of the seed of the given line. The control value is the mean of the seeds of 4 empty vector control plants grown simultaneously, each extracted and measured also in duplicate.

| Molecule | Specific activity of purified ter2-protein [1] | increase in seed storage lipids compared to the controls (Arabidopsis thaliana; independent T2 lines, seed specific promoter, relative to empty pSun300-USP vector controls (FIG. 9)) | Total seed lipids, % fatty acids (Arabidopsis thaliana; transgenic line 7, dry T2 seeds) | Total seed lipids, % fatty acids (Arabidopsis thaliana; transgenic line 10, dry T2 seeds) | Total seed lipids, % fatty acids (Arabidopsis thaliana; transgenic line 22, dry T2 seeds) |
| --- | --- | --- | --- | --- | --- |
| B1 | 1510 nmol/mg/min | – | – | – | – |
| B2 | – | at least 10% | 35.5 ± 3.2% | 32.4 ± 1.1% | 31.4 ± 0.9% |
